From patent US20190015484A1, “NICOTINE-DEGRADING ENZYMES FOR TREATING NICOTINE ADDICTION AND NICOTINE POISONING” (priority 2015, published 2019)
Several values for one entry are separate records, joined by “and”; a condition that tells them apart may be missing. Equal entries are not always repeated. Entries after “also recorded” stand apart in the source; their conditions may differ.

Legend:
[1] = NicA2 Michaelis-Menten assay (LC-MS); type: biochemical
Protocol: NicA2 activity was determined by LC-MS using Agilent 1260 Infinity liquid chromatography system with 6130 quadrupole mass spectrometry. 20 μl of each sample was injected to a Poroshell 120 EC-C8 column (4.6×50 mm, 2.7 μm, Agilent Technologies) subjected to a gradient (A to B where A=0.1% formic acid in water and B=0.1% formic acid in acetonitrile) of 0% B for 3 min, 0% B to 100% B from 3 to 7 min, and 100% B from 7 to 10 min at a constant flow rate of 0.5 ml/min. A column-solvent equilibration time of 3 min was conducted prior to next sample analysis. MS operational parameters were: API-ES mode, channel 1 (90%) positive single ion monitoring (SIM) of m/z 179 (30%), 161 (30%), 166 (30%) and 163 (10%), corresponding to the M+ peak of the reaction products, labeled internal standard and substrate respectively and channel 2 (10%) scan for positive ions; nitrogen as a nebulizing and drying gas (35 psi, 12 L/min), HV capillary voltage at 4 kV and the drying gas temperature to 300° C. To protect the detector from salts in the buffer, MS was turned on with a delay 1.4 min after injection.
Nicotine was solubilized in ddH2O to a concentration of 10 mM as stock and diluted with HEPES buffer (50 mM, pH=7.4) in the assay. Then 100 μL nicotine solution was mixed with 100 μL NicA2 solution to obtain final concentrations of 0.0625, 0.125, 0.25, 0.5, 1, 2 […] and 10 nM NicA2. After incubating at room temperature for 20 min, 20 μL nicotine methyl D-3 (2 μM in 20% TFA/H2O) solution was added to the mixture as an internal standard and to quench the reaction as well. The samples were injected into the LC-MS for analysis.
For standard curve generation, 0.03125, 0.0625, 0.125, 0.25, 0.5, 1, 2 μM nicotine and 0.4 μM NicA2 was tested and incubated for 2 h for complete oxidation of nicotine.
For the assay at 37° C., all the operations were undertaken in a warm room (37° C.) and solutions were pre-warmed to 37° C. Subsequently protocols were followed as described, vide supra.
Raw data was obtained with Agilent ChemStation, ions with m/z 179,161 (products), 166 (internal standard), 163 (nicotine) were extracted from MS channel 1 (SIM). The area of each peak was integrated and divided by internal standard (IS).
Data was further analyzed with Prism 6.0. For standard curves, the ratios of products to IS were plotted against concentrations of converted nicotine and fitted with linear regression. For experiment data, the ratios were fitted to the standard curves to obtain converted nicotine concentration, and then divided by reaction time (20 min) to get v0. These v0 were plotted against substrate nicotine concentrations using he Michaelis-Menten model to obtain Km and Vmax.
Upon reaction of nicotine with NicA2, three products were observed by LC-MS, one with m/z 179 (4) and two inseparable nicotine metabolites with m/z 161 (1 and 2, FIG. 2). Due to the limitation of instrument sensitivity and the dynamic equilibration of the products, direct quantification of the enzyme's efficiency was challenging. To compensate for these shortcomings, the product peaks 1, 2 and 4 were integrated in order to back-calculate the amount of nicotine consumed by NicA2. Standard curves were generated wherein nicotine was fully oxidized by NicA2 and the m/z 161/179 signals were plotted against a change in nicotine concentration, to provide a direct linear relationship (FIG. 3). The kinetic parameters of the enzyme were thus accurately determined.
To determine kinetic parameters of the enzyme, curves were generated at varying nicotine concentrations utilizing 10 nM NicA2 at room temperature. Samples were analyzed by LC-MS using nicotine (methyl-D3) as an internal standard. Target m/z values (161, 179 and 166) were extracted, integrated and fit to obtain the velocity, v0.

[2] = NicA2 stability assay in HEPES buffer at 37° C.; details: HEPES buffer pH=7.4
Protocol: Four μM nicotine and 40 nM NicA2 were prepared in HEPES buffer and stored at 37° C. Upon sitting for 0, 1, 3, 4, 5, 8, 12, 16, 20, or 25 days, 100 μL of each solution was extracted, mixed, incubated, quenched, analyzed as detailed, vide supra.
To test for these metrics, NicA2 was incubated at 37° C. in HEPES buffer and enzyme activity was examined at different time points.

[3] = NicA2 co-factor assay (FAD or FMN); type: biochemical; details: 40 μM FMN or FAD, room temperature
Protocol: An FAD or FMN stock solution was added to nicotine HEPES solution to obtain 80 μM FAD or FMN mixed with 4 μM nicotine. 100 μL each sample was mixed with
100 μL 40 nM NicA2 and incubated at room temperature for 20 min. An additional sample without FAD or FMN was prepared at the same time as the control. The samples were analyzed as described above.

[4] = In vitro NicA2 activity in rat serum at physiologically relevant nicotine levels; type: biochemical; details: for % Reduction in nicotine levels in vitro: rat serum, 37° C.
Protocol: NicA2 was diluted in rat serum (controls: serum without NicA2) to give a final concentration of 400 nM, 200 nM, and 20 nM. Nicotine was diluted in 50 mM HEPES pH 7.5 to give final amounts of 640, […], 80, 40, 20, 10, 5 and 2.5 ng (spanning a nicotine concentration range of 3.2 μg/ml to 12.5 ng/ml). The diluted NicA2 in serum and diluted nicotine were mixed 1:1 after pre-equilibration at 37° C. and 5 min (in 200 μl total). After 4 minutes or 20 minutes, reactions were diluted and quenched by addition of 800 μl H2O+500 μl 2M NaOH/0.2M NH4OH. At the highest NicA2 concentration (400 nM) initial plasma nicotine levels of 25 and 50 ng/ml dropped to <2 ng/ml at 4 min. (Table A).

B1: NicA2: flavin-containing nicotine-degrading enzyme of Pseudomonas putida S16, amino acid sequence SEQ ID NO:1 (protein)
chain: MSDKTKTNEGFSRRSFIGSAAVVTAGVAGLGAIDAASATQKTNRASTVKGGFDYDVVVVGGGFAGATAARECGLQGYRTLLLEARSRLGGRTFTSRFAGQEIEFGGAWVHWLQPHVWAEMQRYGLGVVEDPLTNLDKTLIMYNDGSVESISPDEFGKNIRIAFEKLCHDAWEVFPRPHEPMFTERARELDKSSVLDRIKTLGLSRLQQAQINSYMALYAGETTDKFGLPGVLKLFACGGWNYDAFMDTETHYRIQGGTIGLINAMLTDSGAEVRMSVPVTAVEQVNGGVKIKTDDDEIITAGVVVMTVPLNTYKHIGFTPALSKGKQRFIKEGQLSKGAKLYVHVKQNLGRVFAFADEQQPLNWVQTHDYSDELGTILSITIARKETIDVNDRDAVTREVQKMFPGVEVLGTAAYDWTADPFSLGAWAAYGVGQLSRLKDLQAAEGRILFAGAETSNGWHANIDGAVESGLRAGREVKQLLS
modifications: His tag
specificity constant [1]: approximately 10^5 M^−1s^−1
Km ([1]; 37° C.): 0.092 µM and 0.0919 µM
kcat ([1]; 37° C.): (1.32±0.04)×10^−2 s^−1
kcat ([1]; room temperature, m/z 161): (7.02 ± 0.23) × 10^−3 s^−1
Km ([1]; room temperature, m/z 161, 10 nM NicA2): 0.0462 ± 0.0064 µM
kcat ([1]; room temperature, m/z 179): (6.64 ± 0.17) × 10^−3 s^−1
Km ([1]; room temperature, m/z 179, 10 nM NicA2): 0.043 µM and 0.0435 µM
stability and activity in HEPES buffer [2]: ≥ 3 weeks
v0 over the duration of the study [2]: remained virtually constant
effect of added FMN or FAD on NicA2 activity [3]: no change in NicA2 activity; also recorded: did not affect the activity
% Reduction in nicotine levels in vitro ([4]; 20 nM NicA2, nicotine 25 ng/ml): 17%
% Reduction in nicotine levels in vitro ([4]; 20 nM NicA2, nicotine 50 ng/ml): 8%
% Reduction in nicotine levels in vitro ([4]; 20 nM NicA2, nicotine 100 ng/ml): 4%
% Reduction in nicotine levels in vitro ([4]; 200 nM NicA2, nicotine 25 ng/ml): 100%
% Reduction in nicotine levels in vitro ([4]; 200 nM NicA2, nicotine 50 ng/ml): 100%
% Reduction in nicotine levels in vitro ([4]; 200 nM NicA2, nicotine 100 ng/ml): 72%
nicotine level remaining ([4]; 400 nM NicA2, initial nicotine 25 and 50 ng/ml, at 4 min): < 2 ng/mL
% Reduction in nicotine levels in vitro ([4]; 400 nM NicA2, nicotine 25 ng/ml): 100%
% Reduction in nicotine levels in vitro ([4]; 400 nM NicA2, nicotine 50 ng/ml): 100%
% Reduction in nicotine levels in vitro ([4]; 400 nM NicA2, nicotine 100 ng/ml): 94%
